B1: MAb 6G8 (mouse hybridoma monoclonal antibody) (antibody)
heavy: QVQLQQPGAELVKPGASVKLSCKASGYTFTRYWMYWVKQRPGRGLEWIGRLDPNSGVTKYNEKFKSKATLTVDKSSSTAYMQLSSLTSEDSAVYYCVRDDSWYFDVWGTGTTVTVSSAKTTPPSVYPLAPGSAAQTNSMVTLGCLVKGYFPEPVTVTWNSGSLSSGVHTFPAVLQSDLYTLSSSVTVPSSTWPSQTVTCNVAHPASSTKVDKKIVPRDCGCKPCICTVPEVSSVFIFPPKPKDVLTITLTPKVTCVVVDISKDDPEVQFSWFVDDVEVHTAQTKPREEQINSTFRSVSELPIMHQDWLNGKEFKCRVNSAAFPAPIEKTISKTKGRPKAPQVYTIPPPKEQMAKDKVSLTCMITNFFPEDITVEWQWNGQPAENYKNTQPIMDTDGSYFVYSKLNVQKSNWEAGNTFTCSVLHEGLHNHHTEKSLSLSPGK
light: EIQMTQSPSSMSASLGDRITITCQATQDIVKNLNWYQQKPGKPPSFLIYYATELAEGVPSRFSGSGSGSDYSLTINNLESQDFADYFCLQFYAFPLTFGAGTKLELRRADAAPTVSIFPPSSEQLTSGGASVVCFLNNFYPRDINVKWKIDGSERQNGVLNSWTDQDSKDSTYSMSSTLTLTKDEYERHNSYTCEATHKTSTSPIVKSFNRGEC
notes: Mouse IgG1 kappa, tested as hybridoma culture supernatant; copies: 2 + 2
B2: 6G8 chimeric IgM (antibody)
heavy: QVQLQQPGAELVKPGASVKLSCKASGYTFTRYWMYWVKQRPGRGLEWIGRLDPNSGVTKYNEKFKSKATLTVDKSSSTAYMQLSSLTSEDSAVYYCVRDDSWYFDVWGTGTTVTVSSAKTTPPSVYPLAPGSAAQTNSMVTLGCLVKGYFPEPVTVTWNSGSLSSGVHTFPAVLQSDLYTLSSSVTVPSSTWPSQTVTCNVAHPASSTKVDKKILPVIAELPPKVSVFVPPRDGFFGNPRKSKLICQATGFSPRQIQVSWLREGKQVGSGVTTDQVQAEAKESGPTTYKVTSTLTIKESDWLSQSMFTCRVDHRGLTFQQNASSMCVPDQDTAIRVFAIPPSFASIFLTKSTKLTCLVTDLTTYDSVTISWTRQNGEAVKTHTNISESHPNATFSAVGEASICEDDWNSGERFTCTVTHTDLPSPLKQTISRPKGVALHRPDVYLLPPAREQLNLRESATITCLVTGFSPADVFVQWMQRGQPLSPEKYVTSAPMPEPQAPGRYFAHSILTVSEEEWNTGETYTCVVAHEALPNRVTERTVDKSTGKPTLYNVSLVMSDTAGTCY
light: B1 light
notes: Heavy chain is mouse VH-CH1 plus human IgM mu chain CH2-4; also called 6G8 chimera; 6G8 (26394.1.a)
B3: MAb 8C10 (mouse hybridoma monoclonal antibody) (antibody)
heavy: QVQLQQSGAELMKPGASVKLSCKAAGYTFTDYWIEWVKQRPGHGLEWIGEILPGSGSTKDNERFKGKATFTADTSSNTAYMQLSSLTTEDSAIYYCARREWGYYFDYWGQGTTLTVSSAKTTPPSVYPLAPGSAAQTNSMVTLGCLVKGYFPEPVTVTWNSGSLSSGVHTFPAVLQSDLYTLSSSVTVPSSTWPSQTVTCNVAHPASSTKVDKKIVPRDCGCKPCICTVPEVSSVFIFPPKPKDVLTITLTPKVTCVVVDISKDDPEVQFSWFVDDVEVHTAQTKPREEQINSTFRSVSELPIMHQDWLNGKEFKCRVNSAAFPAPIEKTISKTKGRPKAPQVYTIPPPKEQMAKDKVSLTCMITNFFPEDITVEWQWNGQPAENYKNTQPIMDTDGSYFVYSKLNVQKSNWEAGNTFTCSVLHEGLHNHHTEKSLSLSPGK
light: DIVMTQSHKFMSTSVGDRVSITCKASQDVSTAVAWYQQKPGQSPKLLIYWASTRHTGVPDRFTGSGSGTDYTLTISSVQAEDLALYYCQQHYSTPYTFGGGTKLEIKRADAAPTVSIFPPSSEQLTSGGASVVCFLNNFYPRDINVKWKIDGSERQNGVLNSWTDQDSKDSTYSMSSTLTLTKDEYERHNSYTCEATHKTSTSPIVKSFNRGEC
notes: Mouse IgG (gamma/kappa), tested as hybridoma culture supernatant; Signal peptides are positions 1-19 (heavy) and 1-20 (light); copies: 2 + 2

What was measured:
[1] = target: T1, recombinant DbpA full length protein (without signal sequence), Borrelia burgdorferi decorin-binding protein A (Borrelia burgdorferi, UniProt O50917 30-191); assay: Biacore SPR, supernatant over DbpA chip
T1 construct: also called DpbA; DbpA antigen
T1 sequence: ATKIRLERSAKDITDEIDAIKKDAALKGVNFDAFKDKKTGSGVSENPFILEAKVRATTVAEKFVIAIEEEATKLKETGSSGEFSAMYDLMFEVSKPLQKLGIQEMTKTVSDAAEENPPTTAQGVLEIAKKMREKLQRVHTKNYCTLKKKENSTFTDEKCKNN

[2] = target: T1, recombinant DbpA full length protein …; assay: Biacore SPR (summary table)
[3] = target: T1, recombinant DbpA full length protein …; assay: Octet BLI, mAb on anti-mIgG Fc sensor, DbpA 100 nM
[4] = target: T1, recombinant DbpA full length protein …; assay: Octet BLI, DbpA 100 nM (summary table)
[5] = target: T1, recombinant DbpA full length protein …; assay: Biacore SPR, DbpA on CM5 chip

| Binder | Kd [1] [pM] | koff [1] [s⁻¹] | kon [1] [M⁻¹ s⁻¹] | Kd [2] [pM] | Kd [3] [pM] | koff [3] [s⁻¹] | kon [3] [M⁻¹ s⁻¹] | Kd [4] [pM] | koff [4] [s⁻¹] | kon [4] [M⁻¹ s⁻¹] | Kd [5] [pM] | koff [5] [s⁻¹] | kon [5] [M⁻¹ s⁻¹] |
| --- | --- | --- | --- | --- | --- | --- | --- | --- | --- | --- | --- | --- | --- |
| B1 | 0.25 | 5e-08 | 200000 | 0.25 | 976 | 0.000977 | 1e+06 | 976 | 0.000977 | 1e+06 | – | – | – |
| B2 | – | – | – | – | – | – | – | – | – | – | 1.96 | 2.45e-05 | 1.25e+07 |
| B3 | 1.2 | 1.3e-07 | 100000 | 1.2 | < 1 | < 1e-07 | 356000 | < 1 | < 1e-07 | 356000 | – | – | – |

— US20200062832A1 (QUIDEL, published 2020)
